These results are taken from publication PMC6001950.

The target of this test is human S100A9 protein (human) (UniProt P06702). The test is described as follows: other fluorescence titration; intrinsic tryptophan fluorescence of 2 uM S100A9; S100A12 added at 0.4-7 uM; excitation 295 nm, emission read at 345 nm; one binding site model.

A word on the Kd: it is the equilibrium constant for the complex coming apart. A low value points to a tighter complex.

B1: human S100A12 protein (natural protein)
chain: MTKLEEHLEGIVNIFHQYSVRKGHFDTLSKGELKQLLTKELANTIKNIKDKAVIDEIFQGLDANQDEQVDFQEFISLVAIALKAAHYHTHKE
In turn, B1 came in with a Kd of 1300 nM. That is a single-digit micromolar value.
